What was measured:
[1] = molecular target: TY145 (SEQ ID NO 3) variant G182A; assay: Ki fitted from Suc-AAPF-pNA activity at 8 inhibitor concentrations in Model B detergent; IF relative to SEQ ID NO 3
[2] = molecular target: TY145 (SEQ ID NO 3) variant I150N; assay: as above
[3] = molecular target: TY145 (SEQ ID NO 3) variant I150S; assay: as above
[4] = molecular target: TY145 (SEQ ID NO 3) variant L184F; assay: as above
[5] = molecular target: TY145 (SEQ ID NO 3) variant L184Y; assay: as above
Chain of TY145 (SEQ ID NO 3) variant L184Y (chain, as listed by the source L184Y L184Y limits assumed): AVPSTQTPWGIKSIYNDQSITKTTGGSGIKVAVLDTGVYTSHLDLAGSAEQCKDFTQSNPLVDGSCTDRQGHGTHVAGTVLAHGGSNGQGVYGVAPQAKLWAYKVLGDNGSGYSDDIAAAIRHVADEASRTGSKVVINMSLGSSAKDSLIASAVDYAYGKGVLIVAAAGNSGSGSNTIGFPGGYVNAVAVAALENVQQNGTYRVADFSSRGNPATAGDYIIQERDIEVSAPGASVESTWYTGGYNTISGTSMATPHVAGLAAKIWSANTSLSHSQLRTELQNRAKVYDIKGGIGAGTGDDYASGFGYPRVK

[6] = molecular target: TY145 (SEQ ID NO 3) variant Q70A; assay: as above
[7] = molecular target: TY145 (SEQ ID NO 3) variant Q70F; assay: as above
[8] = molecular target: TY145 (SEQ ID NO 3) variant Q70N; assay: as above
[9] = molecular target: TY145 (SEQ ID NO 3) variant S111R; assay: as above
[10] = molecular target: TY145 (SEQ ID NO 3) variant S114A; assay: as above
[11] = molecular target: TY145 (SEQ ID NO 3) variant Y240R; assay: as above
[12] = molecular target: TY145 (SEQ ID NO 3) variant K146A + S173P + S175P + F180Y; assay: Ki fitted from Suc-AAPF-pNA activity in Model B detergent; IF relative to SEQ ID NO 3 comprising S173P + S175P + F180Y
[13] = molecular target: TY145 (SEQ ID NO 3) variant K146N + S173P + S175P + F180Y; assay: as above
[14] = molecular target: TY145 (SEQ ID NO 3) variant K146R + S173P + S175P + F180Y; assay: as above
[15] = molecular target: TY145 (SEQ ID NO 3) variant K146T + S173P + S175P + F180Y; assay: as above
[16] = molecular target: TY145 (SEQ ID NO 3) variant Q70A + S173P + S175P + F180Y; assay: as above
[17] = molecular target: TY145 (SEQ ID NO 3) variant Q70H + S173P + S175P + F180Y; assay: as above
Chain of TY145 (SEQ ID NO 3) variant Q70H + S173P + S175P + F180Y (chain, as listed by the source Q70H S173P S175P F180Y Q70H S173P S175P F180Y limits assumed): as the sequence (chain, as listed by the source L184Y L184Y limits assumed) above, with Q70H, S173P, S175P, F180Y, Y184L counted along it

[18] = molecular target: TY145 (SEQ ID NO 3) variant S111I + S173P + S175P + F180Y; assay: as above
[19] = molecular target: TY145 (SEQ ID NO 3) variant S114A + S173P + S175P + F180Y; assay: as above
[20] = molecular target: TY145 (SEQ ID NO 3) variant S173P + S175P + F180Y + G182S; assay: as above
[21] = molecular target: TY145 (SEQ ID NO 3) variant S173P + S175P + F180Y + L184Y; assay: as above
[22] = molecular target: TY145 (SEQ ID NO 3) variant S173P + S175P + I178F + F180Y; assay: as above
[23] = molecular target: TY145 (SEQ ID NO 3) variant S173P + S175P + I178P + F180Y; assay: as above
[24] = molecular target: TY145 (SEQ ID NO 3) variant S173P + S175P + I178Y + F180Y; assay: as above
TY145 (SEQ ID NO 3) = assay: Ki fitted from Suc-AAPF-pNA activity at 8 inhibitor concentrations in Model B detergent; IF relative to SEQ ID NO 3 (the reference itself)

Chain of TY145 (SEQ ID NO 3) variant G182A (chain, as listed by the source G182A G182A limits assumed): as the sequence (chain, as listed by the source L184Y L184Y limits assumed) above, with G182A, Y184L counted along it
Chain of TY145 (SEQ ID NO 3) (chain, as listed by the source limits assumed): as the sequence (chain, as listed by the source L184Y L184Y limits assumed) above, with Y184L counted along it
Chain of TY145 (SEQ ID NO 3) variant I150S (chain, as listed by the source I150S I150S limits assumed): as the sequence (chain, as listed by the source L184Y L184Y limits assumed) above, with I150S, Y184L counted along it
Chain of TY145 (SEQ ID NO 3) variant L184F (chain, as listed by the source L184F L184F limits assumed): as the sequence (chain, as listed by the source L184Y L184Y limits assumed) above, with Y184F counted along it

For “Inhibitor 1: Cbz-Gly-Ala-NHCH(CH2C6H4pOH)C(OH)(SO3Na)-H (peptide)”, the IF (binding constant improvement factor, relative Ki) [1] was 1.86, the IF (binding constant improvement factor, relative Ki) [2] was 3.68 and the IF (binding constant improvement factor, relative Ki) [3] was 4.94. For the same substance, the IF (binding constant improvement factor, relative Ki) [4] was 2.27, the IF (binding constant improvement factor, relative Ki) [5] was 4.47 and the IF (binding constant improvement factor, relative Ki) [6] was 2.54. The IF (binding constant improvement factor, relative Ki) [7] was 8.53, the IF (binding constant improvement factor, relative Ki) [8] was 3.33 and the IF (binding constant improvement factor, relative Ki) [9] was 1.11. The IF (binding constant improvement factor, relative Ki) [10] was 2.14, the IF (binding constant improvement factor, relative Ki) [11] was 1.19 and the IF (binding constant improvement factor, relative Ki) [12] was 3.72. The IF (binding constant improvement factor, relative Ki) [13] was 1.36, the IF (binding constant improvement factor, relative Ki) [14] was 1.31 and the IF (binding constant improvement factor, relative Ki) [15] was 15.9. The IF (binding constant improvement factor, relative Ki) [16] was 4.13, the IF (binding constant improvement factor, relative Ki) [17] was 3.78 and the IF (binding constant improvement factor, relative Ki) [18] was 1.12. It also gave an IF (binding constant improvement factor, relative Ki) [19] of 3.33, an IF (binding constant improvement factor, relative Ki) [20] of 1.69 and an IF (binding constant improvement factor, relative Ki) [21] of 3.91. The IF (binding constant improvement factor, relative Ki) [22] was 2.34, the IF (binding constant improvement factor, relative Ki) [23] was 2.22 and the IF (binding constant improvement factor, relative Ki) [24] was 2.15. For the same substance, the IF (binding constant improvement factor, relative Ki) (TY145 (SEQ ID NO 3)) was 1.
